One test deals with T1, human BCMA-Fc (human).
T1 chain: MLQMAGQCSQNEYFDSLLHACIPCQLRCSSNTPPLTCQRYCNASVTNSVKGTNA
Description: SPR, 25C. A general note: Surface plasmon resonance follows binding to a sensor surface in real time, without labels.

The next test addresses cynomolgus BCMA-Fc (cynomolgus). As to the kind of experiment: SPR, 25C.

Among the data in US20260285998 (published 2026) are Kd values, retold here.

What is called Kd is a measure of binding affinity in units of concentration. Read a low Kd as a tighter complex.

Chain of cynomolgus BCMA-Fc (cynomolgus) (chain, as listed by the source): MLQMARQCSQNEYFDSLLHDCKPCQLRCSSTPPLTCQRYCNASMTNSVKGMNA

B1: P1AG5007 (E04_VH1a/VL1e) (antibody, V domains shown)
VH: QVQLVQSGAEVKKPGASVKVSCKASGYTFTNYWMHWVRQAPGQGLEWMGIIHPNSGSTNYNEKFQGRVTMTRDTSTSTVYMELSSLRSEDTAVYYCARGIYDYPFAYWGQGTLVTVSS
VL: DIQMTQSPSSLSASVGDRVTITCRASESVSIHGTHLMHWYQQKPGKAPKLLIYAASSLQSGVPSRFSGSGSGTDFTLTISSLQPEDFATYYCQQSIEDPYTFGGGTKVEIK
Consider B1, for which the Kd with human BCMA-Fc stood at 3 nM; in the test with cynomolgus BCMA-Fc, 12 nM.

B2: P1AG5044 (E04_VH1b/VL1b) (antibody, V domains shown)
VH: QVQLVQSGAEVKKPGASVKVSCKASGYTFTNYWMHWVRQAPGQGLEWMGIIHPNSGSTNYNEKFQGRVTMTVDKSTSTVYMELSSLRSEDTAVYYCARGIYDYPFAYWGQGTLVTVSS
VL: DIQMTQSPSSLSASVGDRVTITCRASESVSIHGTHLMHWYQQKPGKAPKLLIYAASNLESGVPSRFSGSGSETDFTLTISSLQPEDFATYYCQQSIEDPYTFGGGTKVEIK
With B2, the figures for the Kd in the test with human BCMA-Fc and with cynomolgus BCMA-Fc were 1.8 nM and 20 nM, respectively.

B3: P1AG5063 (E04_VH1a/VL1a) (antibody, V domains shown)
VH: QVQLVQSGAEVKKPGASVKVSCKASGYTFTNYWMHWVRQAPGQGLEWMGIIHPNSGSTNYNEKFQGRVTMTRDTSTSTVYMELSSLRSEDTAVYYCARGIYDYPFAYWGQGTLVTVSS
VL: DIQMTQSPSSLSASVGDRVTITCRASESVSIHGTHLMHWYQQKPGKAPKLLIYAASNLESGVPSRFSGSGSGTDFTLTISSLQPEDFATYYCQQSIEDPYTFGGGTKVEIK
With B3, the Kd in the test with human BCMA-Fc is 1.6 nM; with cynomolgus BCMA-Fc it was 28 nM.

B4: P1AG5036 (E04_VH1a/VL1f) (antibody, V domains shown)
VH: QVQLVQSGAEVKKPGASVKVSCKASGYTFTNYWMHWVRQAPGQGLEWMGIIHPNSGSTNYNEKFQGRVTMTRDTSTSTVYMELSSLRSEDTAVYYCARGIYDYPFAYWGQGTLVTVSS
VL: DIQMTQSPSSLSASVGDRVTITCRASESVSIHGTHLMHWYQQKPGKAPKLLIYAASSLQSGVPSRFSGSGSETDFTLTISSLQPEDFATYYCQQSIEDPYTFGGGTKVEIK
On to B4, for which the Kd with human BCMA-Fc came to 2.9 nM; with cynomolgus BCMA-Fc, 9.5 nM.

B5: P1AG5078 (E04_VH1b/VL1d) (antibody, V domains shown)
VH: QVQLVQSGAEVKKPGASVKVSCKASGYTFTNYWMHWVRQAPGQGLEWMGIIHPNSGSTNYNEKFQGRVTMTVDKSTSTVYMELSSLRSEDTAVYYCARGIYDYPFAYWGQGTLVTVSS
VL: DIQMTQSPSSLSASVGDRVTITCRASESVSIHGTHLMHWYQQKPGKAPKLLIYAASNLQSGVPSRFSGSGSETDFTLTISSLQPEDFATYYCQQSIEDPYTFGGGTKVEIK
Consider B5, for which the Kd in the test with human BCMA-Fc amounted to 2.4 nM; in the test with cynomolgus BCMA-Fc, 22 nM.

B6: P1AG5053 (E04_VH1a/VL1h) (antibody, V domains shown)
VH: QVQLVQSGAEVKKPGASVKVSCKASGYTFTNYWMHWVRQAPGQGLEWMGIIHPNSGSTNYNEKFQGRVTMTRDTSTSTVYMELSSLRSEDTAVYYCARGIYDYPFAYWGQGTLVTVSS
VL: DIQMTQSPSSLSASVGDRVTITCRASESVSIHGTHLMHWYQQKPGKAPKLLIYAASNLESGVPSRFSGSGSETDFTLTISSLQPEDFATYFCQQSIEDPYTFGGGTKVEIK
On to B6, for which the Kd came out at 2.4 nM in the test with human BCMA-Fc and 13 nM in the test with cynomolgus BCMA-Fc.

B7: P1AG5004 (E04_VH1a/VL1b) (antibody, V domains shown)
VH: QVQLVQSGAEVKKPGASVKVSCKASGYTFTNYWMHWVRQAPGQGLEWMGIIHPNSGSTNYNEKFQGRVTMTRDTSTSTVYMELSSLRSEDTAVYYCARGIYDYPFAYWGQGTLVTVSS
VL: DIQMTQSPSSLSASVGDRVTITCRASESVSIHGTHLMHWYQQKPGKAPKLLIYAASNLESGVPSRFSGSGSETDFTLTISSLQPEDFATYYCQQSIEDPYTFGGGTKVEIK
In the case of B7, the Kd with human BCMA-Fc was determined as 2.5 nM; in the test with cynomolgus BCMA-Fc it was 16 nM.

B8: P1AG5076 (E04_VH1b/VL1h) (antibody, V domains shown)
VH: QVQLVQSGAEVKKPGASVKVSCKASGYTFTNYWMHWVRQAPGQGLEWMGIIHPNSGSTNYNEKFQGRVTMTVDKSTSTVYMELSSLRSEDTAVYYCARGIYDYPFAYWGQGTLVTVSS
VL: DIQMTQSPSSLSASVGDRVTITCRASESVSIHGTHLMHWYQQKPGKAPKLLIYAASNLESGVPSRFSGSGSETDFTLTISSLQPEDFATYFCQQSIEDPYTFGGGTKVEIK
Take B8: the Kd with human BCMA-Fc amounted to 1.9 nM; with cynomolgus BCMA-Fc it was 23 nM.

B9: P1AG5062 (E04 parental) (antibody, V domains shown)
VH: QVQLQQPGAELVKPGASVKLSCKASGYTFTNYWMHWVKQRPGQGLEWIGIIHPNSGSTNYNEKFKSKATLTVDKSSSTAYMQLSSLTSEDSAVYYCARGIYDYPFAYWGQGTLVTVSS
VL: DIVLTQSPASLAVSLGQRATISCRASESVSIHGTHLMHWYQQKPGQPPKLLIYAASNLESGVPARFSGSGSETDFTLNIHPVEEEDAATYFCQQSIEDPYTFGGGTKLEIK
As to B9, the Kd in the test with human BCMA-Fc was 3.1 nM; with cynomolgus BCMA-Fc, 33 nM.

B10: P1AG5031 (54_VH2a/VL2a) (antibody, V domains shown)
VH: EVQLLESGGGLVQPGGSLRLSCAASGFTFSNAWMDWVRQAPGKGLEWVSQITAKSNNYATYYADSVKGRFTISRDNSKNTLYLQMNSLRAEDTAVYYCTDDGYHWGQGTLVTVSS
VL: DIQMTQSPSSLSASVGDRVTITCRASEDIRNGLAWYQQKPGKAPKLLIYNANSLHTGVPSRFSGSGSGTDFTLTISSLQPEDFATYYCEDTSKYPYTFGQGTKLEIK
Take B10: the results for the Kd with human BCMA-Fc and with cynomolgus BCMA-Fc were 2.4 nM and 4.7 nM, respectively.

B11: P1AG5027 (54_VH1b/VL1a_L1_pGL) (antibody, V domains shown)
VH: EVQLVESGGGLVKPGGSLRLSCAASGFTFSNAWMDWVRQAPGKGLEWIAQITAKSNNYATYYAAPVKGRFTISRDDSKNTLYLQMNSLKTEDTAVYYCTDDGYHWGQGTLVTVSS
VL: AIQMTQSPSSLSASVGDRVTITCRASEDIRNDLGWYQQKPGKAPKLLIYNANSLHTGVPSRFSGSGSGTDFTLTISSLQPEDFATYYCEDTSKYPYTFGQGTKLEIK
Turning to B11, the results for the Kd with human BCMA-Fc and with cynomolgus BCMA-Fc were 1.7 nM and 1.2 nM, respectively.

B12: P1AG5080 (54_VH1a_Y292D/VL2a) (antibody, V domains shown)
VH: EVQLVESGGGLVKPGGSLRLSCAASGFTFSNAWMDWVRQAPGKGLEWVGQITAKSNNYATDYAAPVKGRFTISRDDSKNTLYLQMNSLKTEDTAVYYCTDDGYHWGQGTLVTVSS
VL: DIQMTQSPSSLSASVGDRVTITCRASEDIRNGLAWYQQKPGKAPKLLIYNANSLHTGVPSRFSGSGSGTDFTLTISSLQPEDFATYYCEDTSKYPYTFGQGTKLEIK
Turning to B12, the figures for the dissociation constant Kd with human BCMA-Fc and with cynomolgus BCMA-Fc were 1.3 nM and 4.3 nM, respectively.

B13: P1AG5046 (54_VH1b/VL1a_T699S) (antibody, V domains shown)
VH: EVQLVESGGGLVKPGGSLRLSCAASGFTFSNAWMDWVRQAPGKGLEWIAQITAKSNNYATYYAAPVKGRFTISRDDSKNTLYLQMNSLKTEDTAVYYCTDDGYHWGQGTLVTVSS
VL: AIQMTQSPSSLSASVGDRVTITCRASEDIRNGLAWYQQKPGKAPKLLIYNANSLHSGVPSRFSGSGSGTDFTLTISSLQPEDFATYYCEDTSKYPYTFGQGTKLEIK
Turning to B13, the Kd with human BCMA-Fc was determined as 1.9 nM; with cynomolgus BCMA-Fc, 3.9 nM.

B14: P1AG5071 (54_VH2a/VL1a_T699S) (antibody, V domains shown)
VH: EVQLLESGGGLVQPGGSLRLSCAASGFTFSNAWMDWVRQAPGKGLEWVSQITAKSNNYATYYADSVKGRFTISRDNSKNTLYLQMNSLRAEDTAVYYCTDDGYHWGQGTLVTVSS
VL: AIQMTQSPSSLSASVGDRVTITCRASEDIRNGLAWYQQKPGKAPKLLIYNANSLHSGVPSRFSGSGSGTDFTLTISSLQPEDFATYYCEDTSKYPYTFGQGTKLEIK
As for B14, the Kd in the test with human BCMA-Fc came to 3.4 nM; with cynomolgus BCMA-Fc, 6.5 nM.

B15: P1AG5013 (54_VH2a/VL1a_L1_pGL) (antibody, V domains shown)
VH: EVQLLESGGGLVQPGGSLRLSCAASGFTFSNAWMDWVRQAPGKGLEWVSQITAKSNNYATYYADSVKGRFTISRDNSKNTLYLQMNSLRAEDTAVYYCTDDGYHWGQGTLVTVSS
VL: AIQMTQSPSSLSASVGDRVTITCRASEDIRNDLGWYQQKPGKAPKLLIYNANSLHTGVPSRFSGSGSGTDFTLTISSLQPEDFATYYCEDTSKYPYTFGQGTKLEIK
As to B15, the Kd with human BCMA-Fc was 2.4 nM; with cynomolgus BCMA-Fc, 1.9 nM.

B16: P1AG5072 (54_VH1b/VL1a) (antibody, V domains shown)
VH: EVQLVESGGGLVKPGGSLRLSCAASGFTFSNAWMDWVRQAPGKGLEWIAQITAKSNNYATYYAAPVKGRFTISRDDSKNTLYLQMNSLKTEDTAVYYCTDDGYHWGQGTLVTVSS
VL: AIQMTQSPSSLSASVGDRVTITCRASEDIRNGLAWYQQKPGKAPKLLIYNANSLHTGVPSRFSGSGSGTDFTLTISSLQPEDFATYYCEDTSKYPYTFGQGTKLEIK
For the molecule B16, the results for the Kd with human BCMA-Fc and with cynomolgus BCMA-Fc were 1.3 nM and 3.2 nM, respectively.

B17: P1AG5061 (54 parental) (antibody, V domains shown)
VH: EVQLVESGGGLVKPGESLRLSCAASGFTFSNAWMDWVRQAPGKRLEWIAQITAKSNNYATYYAAPVKGRFTISRDDSKNTLYLQMNSLKKEDTAVYYCTDDGYHWGQGTLVTVSS
VL: AIQMTQSPSSLSASVGDRVTIACRASEDIRNGLAWYQQKPGKAPKLLIYNANSLHTGVPSRFSGSGSGTDFTLTISSLQPEDEAIYYCEDTSKYPYTFGQGTKLEIK
B17: the Kd was found to be 1.4 nM with human BCMA-Fc and 1.9 nM with cynomolgus BCMA-Fc.

B18: P1AG5057 (54_VH1a_Y292D/VL1a) (antibody, V domains shown)
VH: EVQLVESGGGLVKPGGSLRLSCAASGFTFSNAWMDWVRQAPGKGLEWVGQITAKSNNYATDYAAPVKGRFTISRDDSKNTLYLQMNSLKTEDTAVYYCTDDGYHWGQGTLVTVSS
VL: AIQMTQSPSSLSASVGDRVTITCRASEDIRNGLAWYQQKPGKAPKLLIYNANSLHTGVPSRFSGSGSGTDFTLTISSLQPEDFATYYCEDTSKYPYTFGQGTKLEIK
For the molecule B18, the Kd with human BCMA-Fc worked out at 1.7 nM; in the test with cynomolgus BCMA-Fc, 4 nM.

B19: P1AG5064 (54_VH1b/VL1a_N651A_N695S) (antibody, V domains shown)
VH: EVQLVESGGGLVKPGGSLRLSCAASGFTFSNAWMDWVRQAPGKGLEWIAQITAKSNNYATYYAAPVKGRFTISRDDSKNTLYLQMNSLKTEDTAVYYCTDDGYHWGQGTLVTVSS
VL: AIQMTQSPSSLSASVGDRVTITCRASEDIRNGLAWYQQKPGKAPKLLIYAASSLHTGVPSRFSGSGSGTDFTLTISSLQPEDFATYYCEDTSKYPYTFGQGTKLEIK
In the case of B19, the results for the Kd with human BCMA-Fc and with cynomolgus BCMA-Fc were 3.5 nM and 13 nM, respectively.

B20: P1AG5056 (54_VH1b/VL1a_N651A) (antibody, V domains shown)
VH: EVQLVESGGGLVKPGGSLRLSCAASGFTFSNAWMDWVRQAPGKGLEWIAQITAKSNNYATYYAAPVKGRFTISRDDSKNTLYLQMNSLKTEDTAVYYCTDDGYHWGQGTLVTVSS
VL: AIQMTQSPSSLSASVGDRVTITCRASEDIRNGLAWYQQKPGKAPKLLIYAANSLHTGVPSRFSGSGSGTDFTLTISSLQPEDFATYYCEDTSKYPYTFGQGTKLEIK
In the case of B20, the results for the Kd with human BCMA-Fc and in the test with cynomolgus BCMA-Fc were 4.2 nM and 13 nM, respectively.
